B1: Ab42 human Fab (Fab, V domains shown)
VH: QVQLVESGGGVVQPGRSLRLSCAASGFTFRSYVMHWVRQAPGKGLEWVAVISHEGSLKYYADSVKGRFTISRDNSKNTLYLQMNSLRAEDTAVYYCARPRIAARRGGFGYWGQGTLVTVSS
VL: NFMLTQPHSVSESPGKTVTISCTRSSGNIDNNYVQWYQQRPGSSPTTVIYEDNQRPSGVPDRFSGSIDSSSNSASLTISGLKTEDEADYYCQSYDYDTQGVVFGGGTKLTVL
notes: Fab of Ab42; also called Ab42 Fab; Ab42 (monovalent, Fab)
B2: Ab42 (antibody, V domains shown)
VH: B1 VH
VL: B1 VL
notes: also called SR-AB42; SR-Ab42

Key:
[1] = molecular target: T1, human LTBP3-proTGFβ1 complex (human, UniProt Q9NS15 44-1303; P01137 30-390, limits assumed); assay: monovalent Fab affinity (Biacore); repeats the 12th table
T1 construct: also called hLTBP3-proTGFβ1
T1 sequence (Q9NS15 44-1303 limits assumed, chain 1 of 2): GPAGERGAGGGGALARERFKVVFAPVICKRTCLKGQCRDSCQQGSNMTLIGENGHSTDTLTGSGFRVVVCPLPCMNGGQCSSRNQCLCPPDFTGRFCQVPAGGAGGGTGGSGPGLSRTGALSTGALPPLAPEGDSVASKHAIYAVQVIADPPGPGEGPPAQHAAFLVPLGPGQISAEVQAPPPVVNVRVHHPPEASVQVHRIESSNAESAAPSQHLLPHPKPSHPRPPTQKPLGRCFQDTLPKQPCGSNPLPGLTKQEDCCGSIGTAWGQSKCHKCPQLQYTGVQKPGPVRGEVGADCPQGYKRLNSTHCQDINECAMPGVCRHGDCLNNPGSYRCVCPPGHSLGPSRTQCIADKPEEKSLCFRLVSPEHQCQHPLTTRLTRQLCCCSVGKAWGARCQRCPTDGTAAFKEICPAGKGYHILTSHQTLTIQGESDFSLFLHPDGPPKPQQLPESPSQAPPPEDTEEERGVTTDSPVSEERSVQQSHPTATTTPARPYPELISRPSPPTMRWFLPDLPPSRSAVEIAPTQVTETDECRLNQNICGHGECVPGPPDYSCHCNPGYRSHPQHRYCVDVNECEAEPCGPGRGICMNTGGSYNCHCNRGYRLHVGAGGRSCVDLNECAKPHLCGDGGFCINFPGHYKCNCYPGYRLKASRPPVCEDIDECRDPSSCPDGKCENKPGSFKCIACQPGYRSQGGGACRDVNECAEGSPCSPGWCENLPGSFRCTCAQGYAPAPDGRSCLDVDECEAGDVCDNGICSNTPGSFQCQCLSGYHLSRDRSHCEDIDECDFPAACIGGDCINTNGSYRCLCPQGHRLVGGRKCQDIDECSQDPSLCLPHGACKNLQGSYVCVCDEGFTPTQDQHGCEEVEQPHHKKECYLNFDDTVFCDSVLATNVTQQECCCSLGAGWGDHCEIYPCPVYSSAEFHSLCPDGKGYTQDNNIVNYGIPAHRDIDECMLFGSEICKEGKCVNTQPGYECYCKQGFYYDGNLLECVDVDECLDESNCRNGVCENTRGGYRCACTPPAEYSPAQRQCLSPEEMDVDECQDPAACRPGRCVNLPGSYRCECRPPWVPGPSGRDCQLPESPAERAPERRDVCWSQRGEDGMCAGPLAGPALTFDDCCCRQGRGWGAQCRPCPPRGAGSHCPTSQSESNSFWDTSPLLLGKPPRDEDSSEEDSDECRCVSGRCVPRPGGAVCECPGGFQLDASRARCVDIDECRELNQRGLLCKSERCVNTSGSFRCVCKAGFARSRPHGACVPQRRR
T1 sequence (P01137 30-390 limits assumed, chain 2 of 2): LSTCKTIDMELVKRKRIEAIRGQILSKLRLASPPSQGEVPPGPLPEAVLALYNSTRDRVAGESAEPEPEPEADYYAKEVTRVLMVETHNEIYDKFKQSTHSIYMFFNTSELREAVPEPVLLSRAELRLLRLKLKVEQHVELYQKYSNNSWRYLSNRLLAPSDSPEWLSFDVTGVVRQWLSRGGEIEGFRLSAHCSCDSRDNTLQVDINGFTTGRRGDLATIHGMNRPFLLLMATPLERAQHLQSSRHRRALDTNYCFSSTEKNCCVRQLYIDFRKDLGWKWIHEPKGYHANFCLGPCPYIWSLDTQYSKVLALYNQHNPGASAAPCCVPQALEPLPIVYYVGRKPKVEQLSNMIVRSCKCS

[2] = molecular target: T2, human LTBP1-proTGFβ1 complex (human, UniProt Q14766 347-1721; P01137 30-390); assay: as above
T2 construct: also called hLTBP1-proTGFβ1
T2 sequence (Q14766 347-1721 limits assumed, chain 1 of 2): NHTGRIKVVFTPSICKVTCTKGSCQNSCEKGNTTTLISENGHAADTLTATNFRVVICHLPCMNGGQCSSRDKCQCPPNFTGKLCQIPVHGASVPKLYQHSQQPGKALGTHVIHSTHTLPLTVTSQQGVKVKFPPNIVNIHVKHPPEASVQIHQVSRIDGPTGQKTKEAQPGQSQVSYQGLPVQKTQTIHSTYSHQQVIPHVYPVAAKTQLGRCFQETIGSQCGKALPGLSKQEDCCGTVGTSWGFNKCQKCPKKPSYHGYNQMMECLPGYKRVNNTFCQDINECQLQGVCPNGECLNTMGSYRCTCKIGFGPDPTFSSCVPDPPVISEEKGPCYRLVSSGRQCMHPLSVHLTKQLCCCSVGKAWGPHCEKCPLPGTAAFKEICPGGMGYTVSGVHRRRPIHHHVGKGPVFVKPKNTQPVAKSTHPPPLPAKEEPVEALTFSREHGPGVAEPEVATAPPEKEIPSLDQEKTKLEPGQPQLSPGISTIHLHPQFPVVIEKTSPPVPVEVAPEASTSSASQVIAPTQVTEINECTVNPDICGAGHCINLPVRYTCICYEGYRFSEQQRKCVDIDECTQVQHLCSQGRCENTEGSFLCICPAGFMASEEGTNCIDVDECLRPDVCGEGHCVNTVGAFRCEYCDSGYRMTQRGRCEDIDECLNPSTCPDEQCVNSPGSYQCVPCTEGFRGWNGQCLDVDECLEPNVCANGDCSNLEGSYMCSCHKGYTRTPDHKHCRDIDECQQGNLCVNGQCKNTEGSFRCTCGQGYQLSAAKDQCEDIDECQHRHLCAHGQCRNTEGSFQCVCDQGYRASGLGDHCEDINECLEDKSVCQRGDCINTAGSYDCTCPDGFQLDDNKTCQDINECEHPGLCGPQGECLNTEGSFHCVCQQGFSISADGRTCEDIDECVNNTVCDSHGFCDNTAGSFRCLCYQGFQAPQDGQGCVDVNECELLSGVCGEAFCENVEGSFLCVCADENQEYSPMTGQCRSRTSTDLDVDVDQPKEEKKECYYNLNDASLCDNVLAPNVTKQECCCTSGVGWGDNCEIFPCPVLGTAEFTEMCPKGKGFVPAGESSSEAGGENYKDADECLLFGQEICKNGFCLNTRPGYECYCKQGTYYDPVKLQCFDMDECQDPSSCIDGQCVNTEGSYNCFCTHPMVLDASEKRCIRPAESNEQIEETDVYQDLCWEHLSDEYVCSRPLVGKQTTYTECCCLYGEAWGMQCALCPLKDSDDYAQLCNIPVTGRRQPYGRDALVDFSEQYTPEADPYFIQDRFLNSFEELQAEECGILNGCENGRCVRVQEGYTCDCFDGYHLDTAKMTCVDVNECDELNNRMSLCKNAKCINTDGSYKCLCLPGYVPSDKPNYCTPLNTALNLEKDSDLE
T2 sequence (P01137 30-390 limits assumed, chain 2 of 2): as the sequence (P01137 30-390 limits assumed, chain 2 of 2) above

[3] = molecular target: T3, human LRRC33-proTGFβ1 complex (human, UniProt Q86YC3 19-650; P01137 30-390, limits assumed); assay: as above
T3 construct: also called hLRRC33-proTGFβ1
T3 sequence (Q86YC3 19-650 limits assumed, chain 1 of 2): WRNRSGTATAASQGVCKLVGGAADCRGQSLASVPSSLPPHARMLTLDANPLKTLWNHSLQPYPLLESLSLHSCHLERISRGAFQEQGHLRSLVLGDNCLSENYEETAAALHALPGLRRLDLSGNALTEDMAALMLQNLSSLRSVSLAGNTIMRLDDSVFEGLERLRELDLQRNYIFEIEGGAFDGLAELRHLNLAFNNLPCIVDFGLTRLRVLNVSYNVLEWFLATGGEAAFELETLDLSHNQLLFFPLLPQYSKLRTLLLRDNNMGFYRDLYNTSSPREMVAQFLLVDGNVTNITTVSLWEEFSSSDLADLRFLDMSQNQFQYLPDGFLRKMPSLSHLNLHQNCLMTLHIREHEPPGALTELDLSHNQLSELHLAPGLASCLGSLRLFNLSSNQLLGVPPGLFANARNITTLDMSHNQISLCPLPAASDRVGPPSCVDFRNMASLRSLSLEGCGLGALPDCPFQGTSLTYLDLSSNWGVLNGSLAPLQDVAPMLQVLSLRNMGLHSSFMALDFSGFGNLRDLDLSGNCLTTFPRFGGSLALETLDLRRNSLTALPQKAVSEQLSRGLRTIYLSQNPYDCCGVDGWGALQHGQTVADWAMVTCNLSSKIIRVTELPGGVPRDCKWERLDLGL
T3 sequence (P01137 30-390 limits assumed, chain 2 of 2): as the sequence (P01137 30-390 limits assumed, chain 2 of 2) above

[4] = molecular target: T4, human GARP-proTGFβ1 complex (human, UniProt Q14392 20-627; P01137 30-390, limits assumed); assay: as above
T4 construct: also called hGARP-proTGFβ1
T4 sequence (Q14392 20-627 limits assumed, chain 1 of 2): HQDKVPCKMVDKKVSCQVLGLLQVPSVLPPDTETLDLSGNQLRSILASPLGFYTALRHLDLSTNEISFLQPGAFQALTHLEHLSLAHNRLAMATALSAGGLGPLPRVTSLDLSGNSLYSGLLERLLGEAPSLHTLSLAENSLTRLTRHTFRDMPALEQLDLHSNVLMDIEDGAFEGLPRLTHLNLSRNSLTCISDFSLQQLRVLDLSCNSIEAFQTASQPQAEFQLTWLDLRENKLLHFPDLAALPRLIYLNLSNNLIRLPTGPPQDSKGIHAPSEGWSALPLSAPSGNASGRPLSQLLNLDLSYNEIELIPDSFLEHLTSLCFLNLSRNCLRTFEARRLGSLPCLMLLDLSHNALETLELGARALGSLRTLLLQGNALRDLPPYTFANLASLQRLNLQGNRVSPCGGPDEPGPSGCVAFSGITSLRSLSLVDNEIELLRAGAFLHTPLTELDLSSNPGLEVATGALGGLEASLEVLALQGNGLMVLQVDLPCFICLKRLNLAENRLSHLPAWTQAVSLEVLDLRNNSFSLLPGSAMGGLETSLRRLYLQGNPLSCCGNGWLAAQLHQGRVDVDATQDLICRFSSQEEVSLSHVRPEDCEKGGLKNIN
T4 sequence (P01137 30-390 limits assumed, chain 2 of 2): as the sequence (P01137 30-390 limits assumed, chain 2 of 2) above

[5] = molecular target: T1, human LTBP3-proTGFβ1 complex; assay: SPR (Biacore)
[6] = molecular target: T2, human LTBP1-proTGFβ1 complex; assay: SPR (Biacore)
[7] = molecular target: T1, human LTBP3-proTGFβ1 complex; assay: SPR (Biacore), monovalent Fab
[8] = molecular target: T2, human LTBP1-proTGFβ1 complex; assay: SPR (Biacore), monovalent Fab
[9] = molecular target: T3, human LRRC33-proTGFβ1 complex; assay: SPR (Biacore), monovalent Fab
[10] = molecular target: T4, human GARP-proTGFβ1 complex; assay: SPR (Biacore), monovalent Fab
[11] = molecular target: T1, human LTBP3-proTGFβ1 complex; assay: binding profile; method not stated
[12] = molecular target: T2, human LTBP1-proTGFβ1 complex; assay: binding profile; method not stated

Binder	Kd [1] [nM]	Kd [2] [nM]	Kd [3] [nM]	Kd [4] [nM]	fold binding selectivity compared to GARP or LRRC33 complexes [5] [fold]	fold binding selectivity compared to GARP or LRRC33 complexes [6] [fold]	Kd [7] [nM]	koff [7] [s⁻¹]	kon [7] [M⁻¹ s⁻¹]	Kd [8] [nM]	koff [8] [s⁻¹]	kon [8] [M⁻¹ s⁻¹]	Kd [9] [nM]	koff [9] [s⁻¹]	kon [9] [M⁻¹ s⁻¹]	Kd [10] [nM]	koff [10] [s⁻¹]	kon [10] [M⁻¹ s⁻¹]	fold specificity over GARP and LRRC33 complexes [11] [fold]	fold specificity over GARP and LRRC33 complexes [12] [fold]
B1	0.57	0.38	134	145	~100	~100	0.57	0.000109	191000	0.38	0.000111	293000	134	0.00271	20200	145	0.006	41500	–	–
B2	–	–	–	–	–	–	–	–	–	–	–	–	–	–	–	–	–	–	> 100	> 100
